The subject of one assay is hepatoma cell line HepG2. Kind of assay: Survival of hepatoma cell line HepG2 in serum-free culture (viable cell count after 3 days). Type of assay: cell-based. To be noted: for Survival rate: HepG2, DMEM without fetal bovine serum; for Effect in controlling cell death (in words): HepG2, serum-free medium. The procedure:
Two mL cell suspension of hepatoma cell line HepG2 dispersed in trypsin (5×10^5 cells) were inoculated on six multi-well plates and pre-culture by using Dulbecco's modified Eagle medium (DMEM) containing 5% fetal bovine serum, 1.6 g/L sodium hydrogencarbonate, 0.584 g/L L-glutamine, and 0.08 g/L kanamycin sulfate at 37° C. in a 5% CO2 gas phase. […] The viable cell count was assayed after 3 days of culture.
The hepatoma cell line HepG2 was pre-cultured in the same manner as in Example 1. After 1 day, the broth was recovered, the cell surfaces were washed with serum-free medium, and the culture was continued for another 3 days with the addition of medium containing 5%, 0% fetal bovine serum, or 2 mL of fresh medium comprising antithrombin III added in concentrations ranging from 1 to 25 μg/mL to media containing no fetal bovine serum (0%). The viable cell count was assayed after 3 days of culture.
The hepatoma cell line HepG2 was pre-cultured in the same manner as in Example 1. After 1 day, the broth was recovered, the cell surfaces were washed with serum-free medium, and the culture was continued for another 3 days with the addition of medium containing 5%, 0% fetal bovine serum, or 2 mL of fresh medium comprising antithrombin III or any of-various synthetic protease inhibitors given in Table 4 added to media containing no fetal bovine serum (0%). The viable cell count was assayed after 3 days of culture.

Another assay deals with osteoblast cell line ROS. Kind of assay: Survival of osteoblast cell line ROS in serum-free culture (viable cell count after 3 days). Type of assay: cell-based. As to conditions: ROS osteoblasts. The protocol:
Two mL cell suspension of osteoblast cell line ROS dispersed in trypsin (5×10^5 cells) were inoculated on six multi-well plates and pre-cultured by using Dulbecco's modified Eagle medium (DMEM) containing 10% fetal bovine serum, 1.6 g/L sodium hydrogencarbonate, 0.584 g/L L-glutamine, and 0.08 g/L kanamycin sulfate at 37° C. in a 5% CO2 gas phase. After one day, the broth was recovered, the cell surfaces were washed with serum-free medium, and the culture was continued for another 3 days with the addition of medium containing 10%, 0% fetal bovine serum, or 2 mL of fresh medium comprising 13 μg/mL antithrombin III added to media containing no fetal bovine serum (0%). The viable cell count was assayed after 3 days of culture.

“Also recorded” adds a separate entry of the source.

B1: Antithrombin III: Lyophilized antithrombin III purified from bovine serum (protein, UniProt P41361 33-465, looked up)
Antithrombin-III: HRSPVEDVCTAKPRDIPVNPMCIYRSSEKKATEGQGSEQKIPGATNRRVWELSKANSHFATAFYQHLADSKNNNDNIFLSPLSISTAFAMTKLGACNNTLKQLMEVFKFDTISEKTSDQIHFFFAKLNCRLYRKANKSSELVSANRLFGGKSITFNETYQDISEVVYGAKLQPLDFKGNAEQSRLTINQWISNKTEGRITDVIPPQAINEFTVLVLVNTIYFKGLWKSKFSPENTRKELFYKADGESCSVLMMYQESKFRYRRVAESTQVLELPFKGDDITMVLILPKLEKTLAKVEQELTPDMLQEWLDELTETLLVVHMPRFRIEDSFSVKEQLQDMGLEDLFSPEKSRLPGIVAEGRSDLYVSDAFHKAFLEVNEEGSEAAASTVISIAGRSLNSDRVTFKANRPILVLIREVALNTIIFMGRVANPCVD
Turning to B1, the Survival rate in the assay on hepatoma cell line HepG2 (additive 1 μg/ml) is recorded as 68.6%; in the assay on hepatoma cell line HepG2 (additive 2.5 μg/ml), 68.0%; in the assay on hepatoma cell line HepG2 (additive 5 μg/ml) it was 74.1%; in the assay with hepatoma cell line HepG2 (additive 10 μg/ml), 88.5%; in the assay on hepatoma cell line HepG2 (additive 17.5 μg/ml), 93.3%; with hepatoma cell line HepG2 (additive 25 μg/ml) it was 94.0%. Further, the Survival rate in the assay with osteoblast cell line ROS (DMEM without fetal bovine serum, additive 13 μg/ml) was found to be 85.5%. The “Effect in controlling cell death (in words)” value with hepatoma cell line HepG2 (additive 1 μg/mL) is given as “cell death was suppressed”; in the assay with hepatoma cell line HepG2 (additive 2.5 μg/mL (so in the source)), “virtually the same survival rate as a serum concentration of 5%”; with hepatoma cell line HepG2 (additive 25 μg/mL), “highly effective in controlling cell death”; in the assay on hepatoma cell line HepG2 (concentration not given) it was “virtually the same survival rate as that of the medium with a 5% serum concentration; also recorded: considerably effective in controlling cell death”; in the assay on osteoblast cell line ROS (serum-free medium, additive 13 μg/mL), “considerably effective in controlling cell death”.

B2: EGF: growth factor reported as survival factor (protein, UniProt P01133 23-1207, looked up)
Pro-epidermal growth factor: PQHWSCPEGTLAGNGNSTCVGPAPFLIFSHGNSIFRIDTEGTNYEQLVVDAGVSVIMDFHYNEKRIYWVDLERQLLQRVFLNGSRQERVCNIEKNVSGMAINWINEEVIWSNQQEGIITVTDMKGNNSHILLSALKYPANVAVDPVERFIFWSSEVAGSLYRADLDGVGVKALLETSEKITAVSLDVLDKRLFWIQYNREGSNSLICSCDYDGGSVHISKHPTQHNLFAMSLFGDRIFYSTWKMKTIWIANKHTGKDMVRINLHSSFVPLGELKVVHPLAQPKAEDDTWEPEQKLCKLRKGNCSSTVCGQDLQSHLCMCAEGYALSRDRKYCEDVNECAFWNHGCTLGCKNTPGSYYCTCPVGFVLLPDGKRCHQLVSCPRNVSECSHDCVLTSEGPLCFCPEGSVLERDGKTCSGCSSPDNGGCSQLCVPLSPVSWECDCFPGYDLQLDEKSCAASGPQPFLLFANSQDIRHMHFDGTDYGTLLSQQMGMVYALDHDPVENKIYFAHTALKWIERANMDGSQRERLIEEGVDVPEGLAVDWIGRRFYWTDRGKSLIGRSDLNGKRSKIITKENISQPRGIAVHPMAKRLFWTDTGINPRIESSSLQGLGRLVIASSDLIWPSGITIDFLTDKLYWCDAKQSVIEMANLDGSKRRRLTQNDVGHPFAVAVFEDYVWFSDWAMPSVMRVNKRTGKDRVRLQGSMLKPSSLVVVHPLAKPGADPCLYQNGGCEHICKKRLGTAWCSCREGFMKASDGKTCLALDGHQLLAGGEVDLKNQVTPLDILSKTRVSEDNITESQHMLVAEIMVSDQDDCAPVGCSMYARCISEGEDATCQCLKGFAGDGKLCSDIDECEMGVPVCPPASSKCINTEGGYVCRCSEGYQGDGIHCLDIDECQLGEHSCGENASCTNTEGGYTCMCAGRLSEPGLICPDSTPPPHLREDDHHYSVRNSDSECPLSHDGYCLHDGVCMYIEALDKYACNCVVGYIGERCQYRDLKWWELRHAGHGQQQKVIVVAVCVVVLVMLLLLSLWGAHYYRTQKLLSKNPKNPYEESSRDVRSRRPADTEDGMSSCPQPWFVVIKEHQDLKNGGQPVAGEDGQAADGSMQPTSWRQEPQLCGMGTEQGCWIPVSSDKGSCPQVMERSFHMPSYGTQTLEGGVEKPHSLLSANPLWQQRALDPPHQMELTQ
modifications: Pro-epidermal growth factor
Regarding B2, the Survival rate in the assay with hepatoma cell line HepG2 (additive 50 ng/ml) is given as 54.7%.

The values are drawn from patent US6858428B2, “Human and animal cell culture medium containing antithrombin III for suppressing cell death” (Agency of Industrial Science and Technology, priority 1999, dated 2005).
